Laboratory results taken from the Human Domainome abundance scans (Beltran et al. 2025).

B1: FERM and PDZ domain-containing protein 4, residues 75 to 154; numbered along this chain, Q14CM0 (parent)
chain: APRKVEMRRDPVLGFGFVAGSEKPVVVRSVTPGGPSEGKLIPGDQIVMINDEPVSAAPRERVIDLVRSCKESILLTVIQP

Variants of: B1
Assay: abundance fitness (aPCA) (normalised: wild type 0, dead -1); higher = more abundant; growth selection in yeast, the domain comes from the species named
Conditions: Homo sapiens

Abundance fitness of substitutions, site by site:
L74: F 0.016; N -0.035; G 0.009; I 0.145; E 0.005; R 0.037; W -0.024; H 0.005; S 0.024; P -0.366; M 0.011; D 0.012; T -0.014; C 0.038; A -0.006; V 0.012; Y 0.131; Q 0.03; K 0.026
E71: T -0.052; R -0.059; W -0.215; Y -0.231; K 0; I -0.261; L -0.232; G -0.041; H -0.081; D 0; P -0.219; S -0.055; M -0.198; N -0.106; C -0.149; A -0.095; Q -0.038; V -0.164
I73: Y -0.755; E -0.463; G -0.565; W -0.954; V -0.025; R -0.669; C -0.045; F -0.242; P -0.57; L -0.023; S -0.462; H -0.793; N -0.369; T -0.202
V62: A -0.32; T -0.25; Q -0.745; G -0.936; H -0.711; D -0.793; Y -0.248; P -0.841; M -0.383; N -0.738; L -0.199; K -1.03; R -0.917; W -0.4; F -0.17; E -0.86; S -0.666
L75: P -0.185; S -0.558; F -0.101; E -0.514; T -0.404; R -0.631; M -0.022; Y -0.749; A -0.332; V -0.097; W -0.629; Q -0.542; C -0.257; N -0.773; I -0.118; K -0.387; D -0.343; H -0.553
C69: H -0.064; W -0.591; Q -0.034; N -0.056; E -0.059; P -0.378; A 0.004; F -0.159; S -0.025; R -0.119; T -0.044; G -0.209; I -0.19; K -0.089; V -0.091; L -0.236; D -0.323; M -0.1
E60: T -0.03; H -0.038; V -0.131; L -0.137; K -0.015; G -0.025; F -0.183; Y -0.178; W -0.112; N -0.028; D -0.049; M -0.048; P -0.077; I -0.21; C -0.059; S -0.005; R -0.041
V66: F -0.056; K -0.692; E -0.427; A -0.219; C -0.08; M -0.004; D -0.681; T -0.18; P -0.881; N -0.733; W -0.475; Y -0.382; S -0.569; R -0.818; Q -0.451; L 0.022; H -0.686; I -0.009; G -0.73
R59: E -0.05; G -0.007; L 0.007; H -0.059; F 0.005; V -0.051; D -0.385; N -0.025; P -0.025; T -0.03; Y 0.025; S -0.06; C -0.03; A -0.028; M -0.039; W -0.025; Q 0.022
R67: N 0.017; D -0.018; G -0.038; M -0.064; F -0.095; L -0.105; Q 0.001; A -0.01; Y -0.06; C -0.055; T -0.018; V -0.079; I -0.159; P -0.808; K 0.002; E 0.005; S -0.013; W -0.182
S68: A -0.033; K -0.043; R -0.048; D -0.042; P -0.578; V -0.17; Q -0.001; C -0.082; L -0.092; T -0.043; F -0.099; E -0.007; Y -0.089; I -0.214; W -0.21; M -0.071
S72: P -0.284; C -0.111; W -0.234; N -0.028; R -0.019; D -0.014; A -0.072; K 0.009; M -0.11; V -0.104; Q -0.004; I -0.177; Y -0.129; T -0.011; F -0.167; H -0.015
R61: Y -0.019; S -0.029; P -0.505; Q -0.005; A -0.018; D -0.021; F -0.044; G -0.134; T -0.037; H -0.012; C -0.065; M -0.059; W -0.082; V -0.044; N -0.041; I -0.107; E -0.071; K -0.01
T76: V -0.133; R -0.058; K -0.036; N 0.002; S -0.047; P -0.639; Q -0.095; M -0.154; L -0.163; W -0.18; D -0.073; I -0.156; A -0.132; C -0.088; H -0.05; Y -0.005; E -0.025
V77: D -0.658; R -0.728; G -0.653; L -0.105; C -0.07; A -0.259; W -0.981; K -0.523; Y -0.815; S -0.655; H -0.681; I -0.098; M -0.475; T -0.231
L65: W -0.244; Q -0.094; N -0.349; T -0.114; P -0.841; H -0.205; M -0.002; G -0.377; R -0.093; K -0.022; E -0.249; F -0.109; I -0.052; S -0.178; V -0.105; C -0.158; A -0.056; Y -0.076; D -0.462
I63: H -0.003; N 0.034; T -0.061; Y -0.087; A 0.005; D -0.035; R -0.033; Q -0.001; K -0.032; W -0.041; E -0.031; V -0.002; M -0.027; C -0.093; P -0.846; L 0.009; S 0.021; F 0.016
I78: A 0.028
D64: G -0.038; R -0.049; Q -0.013; T -0.109; I -0.788; K -0.06; A -0.081; M -0.247; P -0.51; C -0.295; H -0.045; N -0.055; Y -0.252; S -0.023; E -0.011; L -0.466; W -0.222; V -0.593; F -0.354
P58: Y -0.25; W -0.474
K70: Q -0.078; R -0.081; E -0.061; I -0.311; A -0.1; M -0.17; L -0.306; P -0.052; H -0.096; G -0.093; F -0.256; D -0.055; S -0.054; V -0.168; W -0.323; C -0.115; T -0.098; N -0.076; Y -0.153
